Experiment: yeast display, Sf9 membrane polyspecificity reagent, FACS + sequencing; frameworks hold sequencing errors
Method in brief: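 In a synthetic yeast display library (Saccharomyces cerevisiae BJ5465), nanobody expression was induced with galactose for 36–48 hours. FACS gates were set low and high (top ~1%) using anti-HA fluorescence for expression and streptavidin fluorescence for binding of the Sf9 membrane reagent. Each polyreactivity label is drawn from the gate of origin.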

Row | Sequence | polyreactivity (PSR sort gate)
1 | QVQLVESGGGSVQAGGSLRLSCAASGSIYYYAMGWYIQAPGKERELVAAISRSGGSTYYADSVKGRFTISRDNAKNTVYLQMNCLKPEDTAVYYCAKGYRGYSYGYCGQGTQVTVSS | high polyreactivity
2 | QVQLVESGGGLVQAGGSLRLSCAASGFIFARNAMGWYRQAPGKERELVAVISTRGRTYYADSVKGRFTISRDNAKNTVYLQMNSLKPEDTAVYYCNADKVIGYDYWGQGTQVTVSS | high polyreactivity
3 | QVQLEESGGGLVQAGGSLRLSCAASGFIFGPYAMGWYRQAPGKERELVAAMSSSGGSTSYEDSVKGRFTISRDNAKNTVYLQMNSLKPEDTAVYYCAARGRYRLYSNYYDYWGQGTQVNVSS | high polyreactivity
4 | QVQLVETGRGLVQAGGSLRLSSAASGSTFGPNAMGWYRQAHGKVRELVAAITWSGSTTYYADSVKGRFTISRDIAKNTVYLQMNSLKPEDTPVYYCAALRGYRSNWRYGYWGQGTQVTVSS | low polyreactivity
5 | QVQLVESGGGLVQAGGSLRLSCAASGRTFLIYAMGWSRPAPGKERELVAAINFSGGNTYNADSVKGRFTISRDNAKHTVYLQMNSLKPEDTAVYYCAAGVYSFRYDYWGQGTQVTVSS | low polyreactivity
6 | QVQLVESGGGLVQAGGSLRLICAASGSIFYYYAMGWYRQAPGKERELVATITWNGAGTFYADSVKGRFTISRDNAKNTVYLQMNSLKPEDTSVYYCAASWYGESGYEYWGQGTQVTVSS | low polyreactivity
7 | QVQLVESGGGLVQAGGSLRLSCAASGSIFRYNTMGWYRQAPGKVRELVATITRRGGSTYYADSVKGRFTISRDNAKNTVYLQMNSVKPEDTAVYYCIADNFGGPYNYWGQGTQVTVSS | low polyreactivity
8 | QVQLVESGGGLVQAGGRLRLSCAASGSTLNRNAMGWYRQAPGKERELVAAIRVSGGSTYYSDSVKGRFTISRDNAKNTVYLQMNSLNPEDTAVYYCGTRYVRARWYGYWGEGTQVTVSS | high polyreactivity
9 | QVQLVESGRGLVQAGGSLRLSCAASGSTFAWNAMGWYRQAPGKERELVAAINSGDSTYYADSVKGLFTISRDNAKNTVYLQMNSLKPEDTAVYYCATKYRGVWYTRGQTYYYWGQGTQVNVSS | high polyreactivity
10 | QVQLVESAGGLVQAGGSLRLSCAASGLTFYVNAMGWYRQAPGKERELVAAITWSGGSTHYADSVKGRFTISRDNAKNTVYLQMNSLKPEDTAVYYCARATYQHSYVAYDYWGQGTQVTVSS | low polyreactivity
11 | QVQLVESGGGLVQAGGSLRLSCAASGFIFGYYAMGWYRQAPGKERELVAAISKSGGSTYYADSVKGRFTISRDNAKNTVYLQMNSLKPEDTAVYYCAARYTRPFGPFDYWGQGTQVTVSS | low polyreactivity
12 | QVQLVESGGGLVQAGGSLRLSCPASGSIFFYAMGWYRQAPGKERELVADITYTGGSKYADSVKGRFTISRDNAKNTVYLQMNSLKPEDTAFYYCANLDGGLFDYWGQGTQVTVSS | low polyreactivity
13 | QVQLVESGGGLVQEGGSLRLICAASGRIFRYYAMGWYRQAPGKERELVASITYSGGRTNYADSVKGRFTISRDNAKNTVYVQMNSLKPEDTAVYYCNAAYVYYYPHYRYAPTAVDYDYWGQGTQVTVSS | low polyreactivity
14 | QVQLEESGGGLVQAGGSLRLSCAASGSTFVYNAMGWYRQAPGKEMELVAAISRRGGSTYYADSVKGRFTISRDNAKNTVYLQMNSLKPEDTAVYYCAADPSYYTYFSFDLSESDYWGQGTQVTVSS | low polyreactivity
15 | QVQLVESGGGLVQAGGSLRLSCAASGRIFTAYAMGWYRQAPGKERELVAAISSGDSTYYADSVKGRFTISRDNAKNTVSLQMNSLKPEDTAVYYCATGVYPDFEYDSWGQGTQVTVSS | low polyreactivity
16 | QVQLVESGGGLVQAGGSLRLSCAASGSTFDPNAMGWYRQAPGKERELVAVIDSGDGTTYYADSVKGRFTISRDNAKNTVYLQMNSLKPEDTAVYYCAVDESTSYYDDHEDYWGQGTQVTVSS | low polyreactivity
17 | QVQLVESGGGLVQAGGSLRLICAASGSTSPYYTRGWYRQAPGKERELVASINESGGSTYYADSVKARFTISRDNAKNTVYLQMHTLKPEDTAGYNCNAEYTTPSYPVYSIDYYWFDYWGQGTQVTVSS | low polyreactivity
18 | QVQLVESGGGLVQAGGSLRLSCAASGSTFPSNAMGWYRQAPGKESELVAAISDSGSTTYYADSVKGRFTISRDNAKNTVYLQMNSLKPEDTAVYYCNAYLRFVDVSLDYQLLLEHDYWGQGTQVTVSS | low polyreactivity
19 | QVQLVESVGGLVQAGGSLRLSCAASVYAMGWYRPAPGKERELVAAITDSGSTNYADSVKGRFTISRDNAKNTVYLQMNSLKPEDNAVYYCNADPYYATGSWARLPLYQYDYWGPGTQVTVSS | low polyreactivity
20 | QVQLVESGGGLVQAGGSLRLSCAAYGRIFSRNAMGWYRQAPGKERELVAAITSSGGSTYYADSVKGRFTISRDNAKNTVYLQMNSLKPEDTAVYYCNAVSRWWPAGFDYWGQGTQVTVSS | high polyreactivity
21 | QVQLVESGGGLVQAGGSLRLSCAASGIIFGVYAMGWYRQAPGQERELVAAIDGNGSSTYYADSVKGRFTISRDNAKNTVYLQMNSLKPEDTAVYYCAAGYWSYLYYWYDFDYWGQGTQVTVSS | low polyreactivity
22 | QVQLVESGGCLVQAGGSLRLSCAASGLNFSKNVKGWYIQAPGKERELVAAISQRGGSTYYADSVKGRFTISRDYAKNTVYLQMNSLKPEDTAVYYCAADTTVSHEDYWGQGTQVTVSS | low polyreactivity

Row | Sequence | polyreactivity (PSR sort gate)
23 | QVQLVESGGGLVQAGGSLRLSCAASGRIFNGNAMVWYRQAPGKERELVASINVRGGRTYYADSVKGRFTISRDNAKNTVYLQMNSLKPEDTAVYYWYADYAWYQRKSTVDYDYWGQVTQVTVSS | low polyreactivity
24 | QVQLVESGGGLVQAGGSLRLSCAASGFIFNRYTMGWYRQAPGKERELVAAITGRGGSTYYADSVKGRFSISRDNAKNTVYLQMNSLKPEDTAVYYCAAAPAYRYASYTYGYDSWGQGTQVTVSS | high polyreactivity
25 | QVQLVESGGGLVQAGGSLRLSCAASGSTFQSYAMGWYRQAPGKERELVAAITTTGTRTYYADSVKGRFTISRDNAKNTVYFQMNSLKPEDTAVYSCNAQRLQAHRTSRRYDYWGQGTQVTVSS | high polyreactivity
26 | QVQLVESGGGLVQAGGSLRLSCAASGRTFVPYAMGRYRQAPGKERELVAAISARGSSTYYADSVKGRFTISRDNAKNTVYLQMNSLKPEDTAVYYCNAVGARVASATGMEYWGQGTQVTVSS | high polyreactivity
27 | QVQLVESGGGLVQAGGSLRLSCAASGGIFRNYAMGWYRQAPGKERELVARISSAGSTNYADSVKGRFTISRDNAKNTVYLQMNSLKPEDTAVYSCAAYPYVGYVSFSAYDYWGQGTQVTVSS | low polyreactivity
28 | QVQLVESGGGLVQAGGSLRLSCAASGSIFTVNAMGWYRQAPGKERELVAAITFGGGRTYYADSVKGRFTISRDNAKNTVYLQMNSLKPEDTSVYYCAVSRKGLGSVEYWGQGTQVTVSS | low polyreactivity
29 | QVQLVESGGGLVQAGGSLRLSCAASGSTFSWYAMGWYRQAPGKERELVAAITSGGSTQYADSVKGRFTISRDNAKNTVYLQMNSLKPEDTAVYYCATRRYKWGVRYDYWGQGTQVTVSS | high polyreactivity
30 | QVQLVESGGGLVQAGGSLRLSCAASGSIFLSNAIGWYRQAPGKERELVADIDWTGGDTYYADSVKGRFTISRDNAKNTVYLQMNSLKPEDTAVYYCASDYGYRNLLTEYGYWGQGTKVTVSS | low polyreactivity
31 | QVQLVESGVGLVQAGGSLRLSCAASGIIFYEYAMGWNRQAPWKERELVATITSGGSTNYADSVKGRFTISRDNAKNTVYLQMNSLKPEDTAVYYCNADWWWGYGYWGQGTQVTVSS | low polyreactivity
32 | QVQLVESGGGLVQAGGSLRLSCAASGITFRQYAMGWYRQAPGKERELVAVITSRGGTTYYAVSVKGRFTISRDNAKNTVYLQMNSLKPEDTAVYYCAARYPSYDFYYWGQGTQVTVSS | high polyreactivity
33 | QDQLEESGGGLVQAGGSLRLSCAASGRNFYGYVMGWYRQAPGKERELVAAISSGGSTYYADSVKGRFTISRDNAKNTVYLQMNSLKPEDTAVYYCNADWKSYRGPKFDYWGQGTQVTVSS | low polyreactivity
34 | QVQLVESGGCLVQAGGSLRLSCAASGRTFRRYAMGWYRQAPGKERELVASITWRGGRTYYADSVKGRFTISRDNAKNTVYLQMNSLKPEDTAVYYCAAEDYQLPGYRRTHVEKMDYWGQGTQVTVSS | low polyreactivity
35 | QVQLVESGGGLVQAGGSLRLSCAASGFIFYSYAMRWYRQDPGQERELVAAISTSGGSSYYADSVKGRFTMSRDNAKNTVYLQMNSLKPEDTAVYYCATLSAFYPFAYDYWGQGTQVTVSS | high polyreactivity
36 | QVQLLESGGGLVQAGGSLRLSCAASGFTFLSNVMGRYRQAPGKERELVAGINFSGDGTYYADSVKGRFTISRDNAKNTVYLQMNSLKPEDTAVYYCAGDVEYYRDVPQQVYVSDDYWGQGTQVTVSS | low polyreactivity
37 | QVQLVESGGGLVQAGGSLRLSCAASGRTFDHNTMGWYRQAPGTERELVAAISWSGGTTYYADSVKGRFTISRDNAKNTGYLQMNSLKPEDTAVYDCAADRSPGSYGYQYDYWGQGTQVTVSS | low polyreactivity
38 | QVQLVESGGGLVQAGGSLRLSCAASGLTFKYYAMGWSRQAPGKESELVAAITSTGGRTYYADSVKGRFTISRDNAKNTVYLQMNSLKPEDTAVYYCAAYYVGSSKYDSWGQGTQVTVSS | low polyreactivity
39 | QVQLVESGGGLVQAGGSLRLSCAASGSTFRNNGMGWYRQAPGKERELVAAITKSGGSTYYADSVKGRFTISRDNAKNTVYLQMNSLKPEDTAVYYCAARFWYNTPRVGWRRYNYWGQGTQVTVSS | high polyreactivity
40 | QVQHVESGGGLVQAAGSLRLICYASGSIFGSYAMGWYRPAPGKERELVAAISSRGSRTYYADSVKGRFTISRDNAKNTVYLQMNSLKPEDTAVYYSNAGALTNYDYWGQGTQVTVSS | high polyreactivity
41 | QVQLVESGGGLVQAGGSLRLSCAASGFTFQGYVMGWYRQAPGKERELVARITNDGSTTYADSVKGRFTISRDNAKNTVYLQMNSLKPEDTAVYYCDRPYRFWRYYGMYYWGQGTQVTVSS | high polyreactivity
42 | QVQLVESGGGLVQAGGSLRLSCAASGSIFISYAMGWYRQAPGKERELVAAISRSAGRTYYADSVKGRFTISRDNAKNTVYLQMNSLQPEDTAVYYCAASGYKNGVYTYGYWGQGTQVTVSS | high polyreactivity
43 | QVQLVESGGGLVQAGGSLPLSCAASGITIYGYAMGWYRQAPGKESELVAAMSTSGGRTYYADSVKGRFTISRDNAKNTVYLQMNSMKPEDTAVYYCAVAPYKGTWDSRSSWRRRAYWGQGTQVTVSS | high polyreactivity

From the nanobody polyreactivity screen of Harvey et al. (2022)
